According to article PMC11480844:

B1: H2-Kb / F5 (parent)
chain 1: GDSVTQTEGLVTLTEGLPVMLNCTYQSTYSPFLFWYVQHLNEAPKLLLKSFTDNKRPEHQGFHATLHKSSSSFHLQKSSAQLSDSALYYCALSPSNMGYKLTFGTGTSLLVDP
chain 2: EAAVTQSPRNKVAVTGGKVTLSCNQTNNHNNMYWYRQDTGHGLRLIHYSYGAGSTEKGDIPDGYKASRPSQENFSLILELATPSQTSVYFCASGDASEQYFGPGTRLTVL
chain 3: not shown
chain 4: IQKTPQIQVYSRHPPENGKPNILNCYVTQFHPPHIEIQMLKNGKKIPKVEMSDMSFSKDWSFYILAHTEFTPTETDTYACRVKHDSMAEPKTVYWDRDM
chain 5: SIINFEKL
B2: H2-Kb / B5 (parent)
chain 1: TQTVSQSDAHVTVFEGDSVELRCNYSYGGSIYLSWYIQHHGHGLQFLLKYYSGNPVVQGVNGFEAEFSKSDSSFHLRKASVHWSDSAVYFCAVSLYQGGRALIFGTGTTVSVSP
chain 2: EAGVTQSPRYAVLQEGQAVSFWCDPISGHDTLYWYQQPRDQGPQLLVYFRDEAVIDNSQLPSDRFSAVRPKGTNSTLKIQSAKQGDTATYLCASSFAGGARAEQFFGPGTRLTVL
chain 3: not shown
chain 4: B1 chain 4
chain 5: SIINFEKL
B3: H2-Kb / E8 (parent)
chain 1: GDSVTQTEGLVTVTEGLPVKLNCTYQTTYLTIAFFWYVQYLNEAPQVLLKSSTDNKRTEHQGFHATLHKSSSSFHLQKSSAQLSDSALYYCALNTNTGKLTFGDGTVLTVKP
chain 2: EAAVTQSPRNKVAVTGGKVTLSCNQTNNHNNMYWYRQDTGHGLRLIHYSYGAGSTEKGDIPDGYKASRPSQENFSLILELATPSQTSVYFCASGDWGAGTGQLYFGEGSKLTVL
chain 3: not shown
chain 4: B1 chain 4
chain 5: SIINFEKL

Variants of: B1
Assay: % of reporter cells activated (NFAT-GFP), raw
Conditions: with F5; scale: % of reporter cells activated
Further: test concentration or dose not given here.

Ratio to parent: each site, then its substitutions
chain 5 I3: A 0.386
chain 5 F5: I 0.607; C 1.48; W 1.55; H 0.659; S 1.09; G 0.296; T 1.2; A 0.921; N 0.655; E 0.315; V 1.15; D 0.273; K 0.247; R 0.318; Y 0.502; Q 1.76; P 4.99; M 1.51; L 0.79
chain 5 I2: C 0.779; M 1.58; D 0.652; N 0.903; L 3.22; R 0.273; S 0.483; V 1.23; W 1.57; E 0.558; Q 0.472; P 0.419; H 0.378; T 1.03; F 0.577; G 0.989; Y 0.393; A 0.603; K 0.397
chain 5 E6: S 0.303; F 0.292; P 0.21; M 0.221; N 0.296; T 0.36; H 0.27; K 0.337; I 0.21; Y 0.296; Q 0.288; L 0.341; W 0.318; G 0.281; D 0.371; V 0.232; R 0.453; A 0.318; C 0.303

Variants of: B2
Assay: % of reporter cells activated (NFAT-GFP), raw
Conditions: with B5; scale: % of reporter cells activated

Ratio to parent of substitutions, site by site:
chain 5 I2: Q 1.11; A 0.736; C 0.694; T 0.542; D 1.18; L 1.17; G 1.13; M 1.58; R 0.819; Y 1.01; V 0.375; S 0.694; H 0.792; W 1.51; K 0.889; P 1.12; F 0.875; N 1.36; E 1.1
chain 5 F5: A 0.611; Y 1.29; V 3.75; M 1.01; G 0.569; W 0.694; P 1.04; L 0.958; N 1.36; S 0.806; R 1; D 1.28; E 0.472; C 1.92; I 0.597; K 1.06; Q 1.14; T 0.653; H 0.556
chain 5 K7: A 1.19; F 0.806; R 0.833; V 1.19; W 1.19; M 1.57; Q 1.01; S 0.944; C 1.14; P 0.889; G 0.917; H 1.29; L 1.28; D 1.11; I 1.4; T 1.17; N 1.21; E 1.31; Y 1.38
chain 5 L8: D 1.33; T 1.04; Q 1.86; C 1.4; G 0.972; V 1.35; Y 0.958; S 1.19; F 1.53; W 1.47; A 1.54; N 1.49; I 1.06; K 0.903; E 1.42; P 1.15; R 1.78; M 1.61; H 1.21
chain 5 E6: W 1.12; G 1.01; D 1; M 0.903; Y 1.44; C 1.38; R 0.806; N 1.12; T 1.17; L 1.4; S 1.03; V 0.75; F 1.54; K 1.17; Q 1.24; P 1.11; A 0.708; I 1.36; H 1.03
chain 5 I3: R 1.03; G 0.917; W 7.01; M 0.972; Q 0.792; P 1.08; H 1.01; Y 0.917; L 0.847; D 1; F 0.958; E 1.17; S 1.54; A 1.01; V 1.1; N 0.917; T 0.764; K 1.11; C 0.792
chain 5 N4: H 0.556; C 0.625; Y 1; F 8.53; L 1.08; A 0.931; Q 1.71; T 0.514; V 0.389; R 0.556; D 1.08; K 1.07; E 0.778; M 0.75; W 0.931; I 0.5; S 0.597; P 0.917; G 1.33
chain 5 S1: Q 1.08; I 1.14; M 1.22; V 1.39; H 1.11; L 0.764; Y 0.75; C 0.875; R 1.14; F 1.22; K 0.764; E 0.889; N 1.24; A 1.43; P 0.917; D 1.54; W 1.65; T 0.986; G 0.889

Variants of: B3
Assay: % of reporter cells activated (NFAT-GFP), raw
Conditions: with E8; scale: % of reporter cells activated

Ratio to parent: each site, then its substitutions
chain 5 L8: R 0.331; E 0.264; K 0.228; Q 0.38; N 0.755; T 0.444; Y 1.23; V 0.473; W 0.344; G 0.949; I 0.998; S 0.214; P 0.187; A 0.534; M 0.838; D 0.154; F 0.826; H 0.898; C 0.214
chain 5 K7: R 1.06; P 0.0848; T 0.223; E 0.415; G 0.377; I 0.132; F 0.14; C 0.196; L 0.119; N 0.18; Q 0.256; M 0.239; A 0.522; H 0.14; Y 0.121; S 0.491; V 0.175; W 0.235; D 0.288
chain 5 N4: K 0.0265; E 0.0223; I 0.11; R 0.0317; Q 0.0151; C 0.0617; G 0.104; V 0.637; M 0.0197; H 0.0899; A 0.402; W 1.86; P 2.41; L 0.0142; D 0.0157; Y 0.0136; S 0.0377; T 0.394; F 0.0343
chain 5 I2: C 1.31; P 1.66; H 0.943; F 0.604; L 2.58; V 2.6; N 0.771; M 0.834; R 0.251; D 1.78; T 2.56; A 1.19; G 0.418; Q 0.307; K 0.571; E 0.694; S 1.54; W 3.66; Y 0.205
chain 5 S1: A 0.897; M 0.0169; T 0.0377; Q 0.0368; L 0.0264; W 0.0202; P 0.0215; H 0.0497; I 0.0565; N 0.0146; C 0.0291; F 0.0608; Y 0.0177; E 0.252; V 0.0822; K 0.00805; D 1.87; G 0.205; R 0.0279
chain 5 F5: T 0.892; S 1.09; V 3.19; W 2.35; Y 1.09; P 1.03; Q 0.682; R 0.77; M 1.04; N 1.13
chain 5 I3: E 0.331; S 2.66; K 0.147; N 0.231; W 1.9; T 0.273; Q 0.475; C 0.982; V 0.61; F 2.52; A 0.244; H 1.57; R 0.605; P 0.735; L 1.93; M 1.45; D 0.0231; Y 3.36; G 0.241
